Measurements from US20230114801A1 (SYSTIMMUNE, published 2023).

Key:
human HER3 = target: T1, human HER3 (human, UniProt P21860 20-643); assay: BLI (Octet), binder on AHC sensor, 200 nM human HER3, 1:1 fit; molecule has two HER3-binding domains, same value printed under D2 and D5
T1 construct: Soluble antigen in Octet; bought; also called human HER3 (Acro ER3-H5223)

human CD3 = target: T2, human CD3 (human, UniProt P07766 23-126; P04234 22-105); assay: BLI (Octet), binder on AHC sensor, 100 nM human CD3, 1:1 fit
T2 construct: also called His-tagged human CD3; human CD3 (Acro CDD-H52W1)

human EGFR = target: T3, human EGFR (human, UniProt P00533 25-645, limits assumed); assay: BLI (Octet), binder on AHC sensor, 200 nM human EGFR, 1:1 fit; molecule has two EGFR-binding domains, same value printed under D1 and D4
T3 construct: Soluble antigen in Octet; construct not described

B1: SI-75P8 (other)
chain 1: EVQLQESGGGLVQAGDSLSLSCLVSGRSFNSYTMGWFRQAPGKEREFVAAILWSGPTTYYADSVKGRFTISRDNAKNTVYLQMNSLKPEDTAVYYCAAALGVLVLAPGNVYSYWGQGTQVTVSSGGGGSGGGGSQVQLQESGGRLVQPGEPLSLTCKTSGIDLSSNAIGWVRQAPGKGLEWIGVIFGSGNTYYASWAKGRFTISRSTSTVYLKMNSLRSEDTAIYYCARGGYSSDIWGQGTLVTVSSASTKGPSVFPLAPSSKSTSGGTAALGCLVKDYFPEPVTVSWNSGALTSGVHTFPAVLQSSGLYSLSSVVTVPSSSLGTQTYICNVNHKPSNTKVDKRVEPKSCDKTHTCPPCPAPEAAGGPSVFLFPPKPKDTLMISRTPEVTCVVVDVSHEDPEVKFNWYVDGVEVHNAKTKPREEQYNSTYRVVSVLTVLHQDWLNGKEYKCAVSNKALPAPIEKTISKAKGQPREPQVYTLPPSRDELTKNQVSLSCAVKGFYPSDIAVEWESNGQPENNYKTTPPVLDSDGSFFLVSKLTVDKSRWQQGNVFSCSVMHEALHNHYTQKSLSLSPGGGGGSGGGGSQVQLQQSGPGLVKPSETLSITCTVSGFSLTNYGVHWIRQAPGKGLEWLGVIWSGGNTDYNTPFTSRFTITKDNSKNQVYFKLRSVRADDTAIYYCARALTYYDYEFAYWGQGTLVTVSSGGGGSGGGGSGGGGSGGGGSEIVLTQSPSTLSVSPGERATFSCRASQSIGTNIHWYQQKPGKPPRLLIKYASESISGIPDRFSGSGSGTEFTLTISSVQSEDFAVYYCQQNNNWPTTFGPGTKLTVL
chain 2: QVQLVQSGGGLVQAGGSLSLSCAFSGRTFSMYTMGWFRQAPGKEREFVAANRGRGLSPDIADSVNGRFTISRDNAKNTLYLQMDSLKPEDTAVYYCAADLQYGSSWPQRSSAEYDYWGQGTTVTVSSGGGGSGGGGSDPQLTQSPSSLSATVGQRVTINCQSSQSVAKNNNLAWFQQKPGKPPKLLIYSASTLAAGVPSRFSGSGSGTQFTLTITRVQSEDFATYYCSARDSGNIQSFGGGTRVEIKRTVAAPSVFIFPPSDEQLKSGTASVVCLLNNFYPREAKVQWKVDNALQSGNSQESVTEQDSKDSTYSLSSTLTLSKADYEKHKVYACEVTHQGLSSPVTKSFNRGECGGDKTHTCPPCPAPEAAGGPSVFLFPPKPKDTLMISRTPEVTCVVVDVSHEDPEVKFNWYVDGVEVHNAKTKPREEQYNSTYRVVSVLTVLHQDWLNGKEYKCAVSNKALPAPIEKTISKAKGQPREPQVYTLPPSRDELTKNQVSLWCLVKGFYPSDIAVEWESNGQPENNYKTTPPVLDSDGSFFLYSKLTVDKSRWQQGNVFSCSVMHEALHNRFTQKSLSLSPGGGGGSGGGGSQVQLQESGGGLVKPGGSLSLSCAASGFTFSSYWMSWVRQAPGKGLEWVANINRDGSASYYVDSVKGRFTISRDDAKNSLYLQMNSLRAEDTAVYYCARDRGVGYFDLWGRGTLVTVSSGGGGSGGGGSGGGGSQSALTQPASVSGSPGQSITISCTGTSSDVGGYNFVSWYQQHPGKAPKLMIYDVSDRPSGVSDRFSGSKSGNTASLIISGLQADDEADYYCSSYGSSSTHVIFGGGTKVTVL
notes: D1 αEGFR VHH, D2 αHER3 VHH, D3 αCD3* (Fab), D4 αEGFR scFv, D5 αHER3 scFv
Kd (human HER3): 0.786 nM
Kd (human CD3): 44.1 nM
Kd (human EGFR): 6.22 nM
